Series [1] addresses T1, EGFR recombinant protein (Sino Biological 10001-H08H) (human, UniProt P00533 25-645). Nature of the series: ELONA; 100 nM aptamer; Binding buffer: serum-free DMEM + 100 ug/mL tRNA; aptamers denatured 95 C 5 min, snap cooled on ice 10 min; ELONA 1 h (temperature not given); flow cytometry Kd. Particulars: protein: commercial; label: 5'-biotin (ELONA). (A flow cytometer gives signals particle by particle.)

Series [2] concerns the target T1, EGFR recombinant protein (Sino …). Nature of the series: ELONA; Binding buffer: serum-free DMEM + 100 ug/mL tRNA; aptamers denatured 95 C 5 min, snap cooled on ice 10 min; ELONA 1 h (temperature not given); flow cytometry Kd. As to conditions: protein: commercial, label: 5'-biotin (ELONA).

Consider UGCUUUGAUGUCGAUUCGACAGGAGGC (structured_RNA, none (all RNA)) [CL-4RNV617], for which the binding result in series [1] is “no binding”.
Regarding TGCTTTGATGTCGATTCGACAGGAGGC (structured_DNA, none (all DNA)) [CL-4RNV618], the binding result in series [1] is “no binding”.
Consider GCCUUAGUAACGUGCUUUGAUGUCGAUUCGACAGGAGGC (XNA, 2'-F on all C and U; A and G are RNA) [CL-4], for which, in series [2], the Kd was 13.3 nM.
With UGCUUUGAUGUCGAUUCGACAGGAGGC (XNA, 2'-OMe on U, G, C; all A (positions 8, 14, 19, 21, 24) are DNA) [CL-4RNV616], in series [2] (5'-FAM (cells)), the Kd was 18.2 nM.

What is called Kd is the constant that tells how readily two partners part at equilibrium.
